Data: patent US20020064802, “Methods for binding an exogenous molecule to cellular chromatin” (published 2002)

Key:
[1] = biological target: BOS 3 fusion (NLS-ZFP-KRAB-FLAG) (synthetic construct); test: ChIP anti-FLAG, MCF-7 cells, amplicon 230 bp upstream of site; conditions: tags: NLS, KRAB repression domain
Protocol: The sonicated lysate was centrifuged at 13,000 rpm for 10 min at 4° C., and the supernatant was recovered. 1.8 ml of ChIP buffer (16.7 mM Tris-Cl, pH 8.1, 1.2 mM EDTA, 167 mM NaCl, 1.1% Triton X-100, 0.01% SDS, 0.5 mM PMSF, 20 ug/ml aprotinin, 20 ug/ml pepstatin, 20 ug/ml leupeptin) was added to the cleared supernatant and 0.2 ml was removed as a pre-immunoprecipitation (pre-IP) input control. The input control sample was analyzed by agarose gel electrophoresis to verify that DNA fragments of 200-500 nucleotide pairs had been obtained.
The remainder of the sonicated lysate was pre-cleared by adding 0.1 ml of a 50% slurry of Protein A agarose beads (also containing salmon sperm DNA at 200 ug/ml), followed by gentle agitation for 90 min. The lysate was separated from the beads by centrifugation at 1,000 xg for 5 min at 4° C. The cleared lysate was divided into two equal portions. […]
Immune complexes were eluted from the beads by washing them twice with 0.25 ml of 1% SDS, 0.1 M NaHCO₃. […] The purified DNA was analyzed by real-time quantitative PCR, an assay known colloquially as “Taqman®.” The DNA was analyzed for the relative proportion of two sequences: (1) a region located 230 nucleotide pairs upstream of the BOS 3 binding site, and (2) a control sequence from the 18S rRNA gene.

[2] = biological target: T1, VEGF 1 ZFP (NLS-ZFP-VP16-FLAG) (synthetic construct (SP1 backbone)); test: ChIP anti-FLAG, 293 cells, GAPDH-normalized; 8.3 in Table 7
T1 chain: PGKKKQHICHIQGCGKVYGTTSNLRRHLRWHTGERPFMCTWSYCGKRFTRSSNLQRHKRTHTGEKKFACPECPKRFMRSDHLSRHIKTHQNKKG
Protocol: (§1) Immunoprecipitated DNA, obtained as described in Example 11, was used as template in a real-time amplification assay. Three DNA targets were assayed: the integrated reporter gene containing four tandem VEGF 3a/1 binding sites (pGL-VFR), the endogenous VEGF gene, and the endogenous glyceraldehyde phosphate dehydrogenase (GAPDH) gene (which was used as a control for nonspecific precipitation).
(§2) The values obtained for the endogenous VEGF gene (VEGF) and for the integrated reporter containing VEGF target sites (pGL-VFR), normalized to the values obtained for GAPDH, were then normalized to the values obtained for cells transfected with NVF, a construct that lacks a zinc finger DNA-binding domain, to obtain a value for the degree to which VEGF sequences were enriched in immunoprecipitates from cells transfected with a construct encoding a ZFP. […] Furthermore, sequences from an integrated reporter gene containing VEGF target sequences were enriched 170-fold by the VEGF 3a/1 protein and approximately 8-fold by the three-finger VEGF 1 protein.

[3] = biological target: T1, VEGF 1 ZFP (NLS-ZFP-VP16-FLAG); test: cell_activity; 293 cells, integrated reporter; 6 in Table 8
[4] = biological target: T1, VEGF 1 ZFP (NLS-ZFP-VP16-FLAG); test: ChIP anti-FLAG, 293 cells, GAPDH-normalized
Protocol: as §1, §2

[5] = biological target: T1, VEGF 1 ZFP (NLS-ZFP-VP16-FLAG); test: cell_activity; 293 cells; VEGF protein 1.5; mRNA 2.7 and protein 3.1 in Table 9
From the text: Activation of the integrated luciferase reporter gene containing VEGF target sites and immunoprecipitation of reporter sequences by the VEGF 1 and VEGF 3a/1 proteins, as shown in examples 10 and 11, provided evidence that these exogenous ZFPs are binding to their target sites in cellular chromatin. To investigate this question further, the expression of the endogenous VEGF gene was examined in cells containing exogenous VEGF 1 and VEGF 3a/1 proteins. Accordingly, the same samples that were analyzed in Examples 10 and 11 were assayed for endogenous VEGF MRNA (by real-time PCR analysis using reverse transcriptase-mediated PCR) and for VEGF protein (by ELISA). […] The apparent activation of the endogenous VEGF gene by the GATA 15.5 ZFP is explained by the data obtained in Example 14, infra.
The production of mRNA and protein from the endogenous VEGF gene was assayed as described in Example 13, and the results are shown in Table 9. […] The activation of the endogenous VEGF gene by GATA 15.5 is consistent with the ability of this protein to immunoprecipitate endogenous VEGF sequences (Table 7).

Chain of BOS 3 fusion (NLS-ZFP-KRAB-FLAG) (synthetic construct) (chain, as listed by the source): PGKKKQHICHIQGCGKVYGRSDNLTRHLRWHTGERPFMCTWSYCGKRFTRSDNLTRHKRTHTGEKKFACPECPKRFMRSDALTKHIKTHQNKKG

B1: endogenous ER-alpha gene BOS 3 site, -2 kb hypersensitive region (dsDNA)
DNA 1: GGGGAGGAG
DNA 2: CTCCTCCCC
binding signal [1]: ~20 fold enrichment vs cells without BOS3

B2: pGL-VFR integrated reporter, VEGF 3a/1 target (four tandem copies) (dsDNA)
DNA 1: GGGGAGGATCGCGGAGGCTT
DNA 2: AAGCCTCCGCGATCCTCCCC
binding signal [2]: 10.7 fold enrichment vs NVF | activity [3]: 2.7 fold luciferase vs NVF

B3: endogenous VEGF-A gene target at +1 accessible region (dsDNA)
DNA 1: GGGGAGGATCGCGGAGGCTT
DNA 2: AAGCCTCCGCGATCCTCCCC
binding signal [4]: 4.1 fold enrichment vs NVF | activity [5]: 3.2 fold VEGF mRNA vs NVF
